T1: canine PD-1 expressed on CHO cells (canine)
T1 construct: CHO DXB11 cells transfected with plasmid p96793; also called cPD-1 CHO cells; CHO cell line expressing canine PD-1
T1 chain: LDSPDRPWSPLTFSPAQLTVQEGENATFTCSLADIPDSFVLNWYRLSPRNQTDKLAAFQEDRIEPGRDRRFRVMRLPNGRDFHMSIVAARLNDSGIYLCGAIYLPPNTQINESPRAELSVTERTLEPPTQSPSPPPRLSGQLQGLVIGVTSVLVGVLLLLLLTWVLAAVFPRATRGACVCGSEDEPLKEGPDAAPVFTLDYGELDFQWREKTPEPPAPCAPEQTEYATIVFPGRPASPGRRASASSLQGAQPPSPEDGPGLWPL

T2: HIS-tagged extracellular domain of canine PD-1
T2 construct: also called canine PD-1 ECD-8HIS; PD-1ECD-HIS
T2 chain: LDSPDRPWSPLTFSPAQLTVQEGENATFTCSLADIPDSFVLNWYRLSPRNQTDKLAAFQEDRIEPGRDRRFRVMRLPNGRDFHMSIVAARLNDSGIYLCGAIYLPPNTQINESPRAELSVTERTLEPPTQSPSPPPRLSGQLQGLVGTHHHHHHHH

T3: canine PD-1 antigen peptide GRDRRFRVM*RLPNGR (SEQ ID NO: 84) (canine)
T3 construct: The starred methionine has also been reported as a threonine
T3 peptide: GRDRRFRVMRLPNGR


Assays:
[1] = target: T1, canine PD-1 expressed on CHO cells; assay: ligand blockade CELISA: mAb diluted from 54.8 µg/mL on CHO cells expressing canine PD-1, then cPD-L1-Fc-biotin, streptavidin-HRP; the signal is bound PD-L1
Procedure: (§1) A cell-based ELISA (CELISA) assay based on the CHO cell line expressing canine PD-1 was used for mouse mAbs which react with canine PD-1 (cPD-1). Ligand blockade was confirmed using this assay in conjunction with biotinylated cPD-L1/Fc protein. Briefly, seed cPD-1 CHO cells were placed in 96-well plates at 4×10⁴ cells per well and the cells were incubated at 37° C. for 18-24 hours till they are 95-100% confluent. The cell culture media was aspirated off, and the plates were washed 3× with PBS+0.05% Tween20 and 1×CHO media. Three-fold serial dilutions were made of anti-cPD1 mAbs in CHO media, starting at 30 μg/mL, and 50 μL/well of each antibody dilution were added down the plate. The incubation was performed at 37° C., 5% CO₂ with shaking for 30 min. 50 μL/well of cPD-L1-Fc-biotin (2 μg/ml in CHO media stock) was added and the incubation at 37° C., 5% CO₂ was continued with shaking for 45 min. The plates were washed 6 times with PBS+0.05% Tween 20. 100 ul/well of Streptavidin-HRP (1:2000) in CHO media was added followed by a incubation for 30-60 min at 37° C./5% CO₂. The plates were washed 5 times with PBS+0.05% Tween20 and then 100 μl/well of TMB color developing substrate was added. The color development was stopped by adding 50 μl/well of 1M phosphoric acid. The optical density (O.D.) at A450-A620 was measured using an ELISA plate reader.

[2] = target: T2, HIS-tagged extracellular domain of …; assay: ELISA on plate-coated HIS-tagged canine PD-1 ECD, two-fold dilutions of mAb, HRP goat anti-mouse IgG, TMB
Procedure: Purified anti-canine PD-1 mAbs were tested for reactivity with the HIS-tagged ECD domain of canine PD-1 by ELISA as follows: HIS-tagged canine PD-1 ECD protein is diluted to 10 μg/mL in coating buffer (Carbonate/Bicarbonate pH 9.0) and dispensed at 100 μl/well in 96-well flat bottomed ELISA plates (NUNC). The plates are incubated at 4° C. overnight. The plates are then washed three times with phosphate buffered saline containing 0.05% Tween-20 (PBST). Next, 200 μl of blocking buffer (5% skim milk in PBST) is added to each well and the plates are incubated at 37° C. for 60 minutes. The plates are then washed three times with PBST. Next, 100 μl of test mAbs diluted in blocking buffer is added to the first wells of the appropriate columns. Test mAbs are then diluted two-fold to the appropriate plate position. Following incubation of the plates at 37° C. for 60 minutes, the plates are washed three times with PBST. Next, 100 μl per well of a 1:2,000 dilution of a horseradish peroxidase conjugated goat anti-mouse IgG (KPL) is added to the plates, which are then incubated at 37° C. for 60 minutes. Then the plates are washed three times with PBST, and 100 μl/well of 3,3′,5,5′ tetramethyl benzidine, (TMB) substrate (from KPL) is added to the plates. The color reaction is allowed to develop for 5-20 minutes at 37° C. prior to measuring absorbance at 650 nm.

[3] = target: T1, canine PD-1 expressed on CHO cells; assay: CELISA on CHO cells expressing canine PD-1, mAb diluted from 30 ug/mL (x axis: log of dilution), HRP goat anti-mouse, TMB
[4] = target: T1, canine PD-1 expressed on CHO cells; assay: ligand blockade CELISA: mAb diluted from 30 ug/mL on CHO cells expressing canine PD-1, then cPD-L1-Fc-biotin, streptavidin-HRP; the signal is bound PD-L1
Procedure: as §1

[5] = target: T3, canine PD-1 antigen peptide …; assay: ProImmune ProArray Ultra peptide microarray, fluorescent secondary antibody
Procedure: This library of overlapping peptides was designed to cover the full length canine PD-1 protein. The determination of peptide-antibody binding was performed by attachment of antibody samples to the ProArray Ultra® peptide microarray, followed by incubation with a fluorescent-labelled secondary antibody. All peptides are synthesized separately, and then bound to the ProArray Ultra® slide surface alongside ProImmune® murine IgG controls. This optimized process ensures that peptides are presented on the array in such a manner as to closely mimic the properties of the corresponding protein region, circumventing the inherent physiochemical variation of the free peptides themselves and making a compatible, combined peptide and protein array platform. […] After several washing steps, the ProArray Ultra® arrays were dried and scanned using a high-resolution fluorescence microarray scanning system. After scanning the fluorescent labelled ProArray Ultra® slides, the scanner recorded an image which was evaluated using image analysis software—enabling interpretation and quantification of the levels of fluorescent intensities associated with each fluorescent spot on the scanned microarray slide. The results of this experiment indicated some of the canine PD-1 peptides were recognized by some of the mAbs evaluated.

[6] = target: T1, canine PD-1 expressed on CHO cells; assay: ligand blockade CELISA: mAb diluted from 23.2 µg/mL on CHO cells expressing canine PD-1, then cPD-L1-Fc-biotin, streptavidin-HRP; the signal is bound PD-L1
Procedure: as §1

| binding result [2] | binding result [3] | Binder | also measured |
| --- | --- | --- | --- |
| binds |  | mAb 2G9 (mouse anti-canine PD-1 monoclonal antibody) (antibody, V domains shown, Mouse hybridoma mAb) VH: QAYLQQSGAELVRPGASVKISCKASGYTFTRYNMHWVKQTPRQGLEWIGTIYPGYGDTSYNQKFKGKATLTVDISSSTAYMQLTSLTSEDSAVYFCSREFADDYPIPPFDYWGQGTTLTVSS VL: DVLMTQTPLSLPVSLGDQASISCRSSQNIVHSNGNTYLEWYLQKPGQSPKLLIYKVSNRFSGVPDRFSGSGSGTDFTLKISRVEAEDLGIYYCFQGSHVPYTFGGGTKLEIK | binding result [1]: binds |
| binds |  | 4D12 (antibody, V domains shown, Mouse anti-canine PD-1 mAb; also called mAb 4D12; copies: 2 + 2) VH: QIQLVQSGPELKKPGETVKISCKASGYTFTTYGMSWVKQAPGKGLKWMGWINIYSGMPTYADDFKGRFAFSLETSVSTAYLQINNLKNEDTATYFCARFDGPDYWGQGTTLTVSS VL: not shown | binding result [4]: binds |

The next lines start with the binder.

| Binder | binding result [2] | binding result [3] | also measured |
| --- | --- | --- | --- |
| mAb 1B5 (mouse anti-canine PD-1 monoclonal antibody) (antibody, V domains shown, Mouse mAb; also called IBS) VH: QIQLVQSGPELKKPGETVKISCKASGYTFTTYGMSWVKQAPGKGLKWMGWINIYSGIPTYADDFKGRFAFSLETSASTAYLQIDNLKNEDTATYFCARFDGPDYWGQGTTLTVSP VL: DIVMTQSPSSLAMSVGQKVTMSCKSSQSLLNSVNQKNYLAWYQQKPGQSPKVLVYFASTRVSGVPDRFIGSGSGTDFTLTITSVQAEDLTTYLCQQYFSTPLTFGAGTKLEIK |  | binds |  |
| Murine 3B6 (mouse anti-canine PD-1 monoclonal antibody) (antibody, V domains shown, Mouse hybridoma mAb; also called mAb 3B6) VH: QIQLVQSGPELKKPGETVKISCKASGYTFTTYGMSWVKQAPGKGLKWMGWINIYSGIPTYADDFKGRFAFSLETSASTAYLQIDNLKNEDTATYFCARFDGPDYWGQGTTLTVSS VL: DIVMTQSPSSLAVSVGRKVTMSCKSSQSLLNSVNQKNYLAWYQQKPGQSPKVLVYFASARVSGVPDRFIGSGSGTDFTLAISSVQAEDLTTYFCQQYFSTPLTFGAGTKLELK | binds | binds |  |
| 5G5 (antibody, V domains shown, Mouse anti-canine PD-1 mAb; also called mAb 5G5; copies: 2 + 2) VH: EVQLQQSVAELVRPGASVKLSCTVSGFNIKNTYMHWVKQRPEQGLEWIGRIDPANVNTKYAPKFQGKATITTDTSSNTAYMQLSSLTSEDTAIYYCVLIFYDYDGDIDVWGTGTKVTVSS VL: DIQMNQSPSSLSASLGDTITITCHASQNINVWLSWYQQKPGNIPKLLIYKASNLHTGVPSRFSGSGSGTDFTLTISSLQPEDIATYYCQQGQSYPLTFGAGTKLELK | binds |  |  |
| Murine 2H9 (mouse anti-canine PD-1 monoclonal antibody) (antibody, V domains shown, Mouse hybridoma mAb purified on Protein G; also called mAb 2H9) VH: EVQLQQSVAELVRPGASVKLSCTASGFNIKNTYMHWIKQRPEQGLEWIGRIAPANVDTKYAPKFQGKATITADTSSNTAYMQLSTLTSEDTAIYYCVLIYYDYDGDIDVWGTGTTVTVSS VL: DIQMNQSPSSLSASLGDTITITCHASQNINVWLSWYQQRPGNIPKLLIYKASHLHTGVPSRFSGSGSGTGFTLTISSLQPEDIATYYCQQGQSWPLTFGAGTKLELK | binds |  | binding result [5]: binds; binding result [6]: binds |

— patent US20240084004A1 (INTERVET, published 2024)
